Test results taken from patent US9976134B2, “Thermolysin variants” (Danisco US Inc., priority 2007, dated 2018).

B1: Y151D: single-substitution thermolysin variant (SEQ ID NO:3 numbering) (protein, listed as Geobacillus caldoproteolyticus)
chain: ITGTSTVGVGRGVLGDQKNINTTYSTYYYLQDNTRGNGIFTYDAKYRTTLPGSLWADADNQFFASYDAPAVDAHYYAGVTYDYYKNVHNRLSYDGNNAAIRSSVHYSQGYNNAFWNGSQMVYGDGDGQTFIPLSGGIDVVAHELTHAVTDDTAGLIYQNESGAINEAISDIFGTLVEFYANKNPDWEIGEDVYTPGISGDSLRSMSDPAKYGDPDHYSKRYTGTQDNGGVHINSGIINKAAYLISQGGTHYGVSVVGIGRDKLGKIFYRALTQYLTPTSNFSQLRAAAVQSATDLYGSTSQEVASVKQAFDAVGVK
B2: I156M: single-substitution thermolysin variant (SEQ ID NO:3 numbering) (protein, listed as Geobacillus caldoproteolyticus)
chain: ITGTSTVGVGRGVLGDQKNINTTYSTYYYLQDNTRGNGIFTYDAKYRTTLPGSLWADADNQFFASYDAPAVDAHYYAGVTYDYYKNVHNRLSYDGNNAAIRSSVHYSQGYNNAFWNGSQMVYGDGDGQTFIPLSGGIDVVAHELTHAVTDYTAGLMYQNESGAINEAISDIFGTLVEFYANKNPDWEIGEDVYTPGISGDSLRSMSDPAKYGDPDHYSKRYTGTQDNGGVHINSGIINKAAYLISQGGTHYGVSVVGIGRDKLGKIFYRALTQYLTPTSNFSQLRAAAVQSATDLYGSTSQEVASVKQAFDAVGVK
B3: Y151R: single-substitution thermolysin variant (SEQ ID NO:3 numbering) (protein, listed as Geobacillus caldoproteolyticus)
chain: ITGTSTVGVGRGVLGDQKNINTTYSTYYYLQDNTRGNGIFTYDAKYRTTLPGSLWADADNQFFASYDAPAVDAHYYAGVTYDYYKNVHNRLSYDGNNAAIRSSVHYSQGYNNAFWNGSQMVYGDGDGQTFIPLSGGIDVVAHELTHAVTDRTAGLIYQNESGAINEAISDIFGTLVEFYANKNPDWEIGEDVYTPGISGDSLRSMSDPAKYGDPDHYSKRYTGTQDNGGVHINSGIINKAAYLISQGGTHYGVSVVGIGRDKLGKIFYRALTQYLTPTSNFSQLRAAAVQSATDLYGSTSQEVASVKQAFDAVGVK
B4: Y151W: single-substitution thermolysin variant (SEQ ID NO:3 numbering) (protein, listed as Geobacillus caldoproteolyticus)
chain: ITGTSTVGVGRGVLGDQKNINTTYSTYYYLQDNTRGNGIFTYDAKYRTTLPGSLWADADNQFFASYDAPAVDAHYYAGVTYDYYKNVHNRLSYDGNNAAIRSSVHYSQGYNNAFWNGSQMVYGDGDGQTFIPLSGGIDVVAHELTHAVTDWTAGLIYQNESGAINEAISDIFGTLVEFYANKNPDWEIGEDVYTPGISGDSLRSMSDPAKYGDPDHYSKRYTGTQDNGGVHINSGIINKAAYLISQGGTHYGVSVVGIGRDKLGKIFYRALTQYLTPTSNFSQLRAAAVQSATDLYGSTSQEVASVKQAFDAVGVK
B5: Y151H: single-substitution thermolysin variant (SEQ ID NO:3 numbering) (protein, listed as Geobacillus caldoproteolyticus)
chain: ITGTSTVGVGRGVLGDQKNINTTYSTYYYLQDNTRGNGIFTYDAKYRTTLPGSLWADADNQFFASYDAPAVDAHYYAGVTYDYYKNVHNRLSYDGNNAAIRSSVHYSQGYNNAFWNGSQMVYGDGDGQTFIPLSGGIDVVAHELTHAVTDHTAGLIYQNESGAINEAISDIFGTLVEFYANKNPDWEIGEDVYTPGISGDSLRSMSDPAKYGDPDHYSKRYTGTQDNGGVHINSGIINKAAYLISQGGTHYGVSVVGIGRDKLGKIFYRALTQYLTPTSNFSQLRAAAVQSATDLYGSTSQEVASVKQAFDAVGVK
B6: Y151E: single-substitution thermolysin variant (SEQ ID NO:3 numbering) (protein, listed as Geobacillus caldoproteolyticus)
chain: ITGTSTVGVGRGVLGDQKNINTTYSTYYYLQDNTRGNGIFTYDAKYRTTLPGSLWADADNQFFASYDAPAVDAHYYAGVTYDYYKNVHNRLSYDGNNAAIRSSVHYSQGYNNAFWNGSQMVYGDGDGQTFIPLSGGIDVVAHELTHAVTDETAGLIYQNESGAINEAISDIFGTLVEFYANKNPDWEIGEDVYTPGISGDSLRSMSDPAKYGDPDHYSKRYTGTQDNGGVHINSGIINKAAYLISQGGTHYGVSVVGIGRDKLGKIFYRALTQYLTPTSNFSQLRAAAVQSATDLYGSTSQEVASVKQAFDAVGVK
B7: Y151V: single-substitution thermolysin variant (SEQ ID NO:3 numbering) (protein, listed as Geobacillus caldoproteolyticus)
chain: ITGTSTVGVGRGVLGDQKNINTTYSTYYYLQDNTRGNGIFTYDAKYRTTLPGSLWADADNQFFASYDAPAVDAHYYAGVTYDYYKNVHNRLSYDGNNAAIRSSVHYSQGYNNAFWNGSQMVYGDGDGQTFIPLSGGIDVVAHELTHAVTDVTAGLIYQNESGAINEAISDIFGTLVEFYANKNPDWEIGEDVYTPGISGDSLRSMSDPAKYGDPDHYSKRYTGTQDNGGVHINSGIINKAAYLISQGGTHYGVSVVGIGRDKLGKIFYRALTQYLTPTSNFSQLRAAAVQSATDLYGSTSQEVASVKQAFDAVGVK
B8: Y151Q: single-substitution thermolysin variant (SEQ ID NO:3 numbering) (protein, listed as Geobacillus caldoproteolyticus)
chain: ITGTSTVGVGRGVLGDQKNINTTYSTYYYLQDNTRGNGIFTYDAKYRTTLPGSLWADADNQFFASYDAPAVDAHYYAGVTYDYYKNVHNRLSYDGNNAAIRSSVHYSQGYNNAFWNGSQMVYGDGDGQTFIPLSGGIDVVAHELTHAVTDQTAGLIYQNESGAINEAISDIFGTLVEFYANKNPDWEIGEDVYTPGISGDSLRSMSDPAKYGDPDHYSKRYTGTQDNGGVHINSGIINKAAYLISQGGTHYGVSVVGIGRDKLGKIFYRALTQYLTPTSNFSQLRAAAVQSATDLYGSTSQEVASVKQAFDAVGVK
B9: Y151M: single-substitution thermolysin variant (SEQ ID NO:3 numbering) (protein, listed as Geobacillus caldoproteolyticus)
chain: ITGTSTVGVGRGVLGDQKNINTTYSTYYYLQDNTRGNGIFTYDAKYRTTLPGSLWADADNQFFASYDAPAVDAHYYAGVTYDYYKNVHNRLSYDGNNAAIRSSVHYSQGYNNAFWNGSQMVYGDGDGQTFIPLSGGIDVVAHELTHAVTDMTAGLIYQNESGAINEAISDIFGTLVEFYANKNPDWEIGEDVYTPGISGDSLRSMSDPAKYGDPDHYSKRYTGTQDNGGVHINSGIINKAAYLISQGGTHYGVSVVGIGRDKLGKIFYRALTQYLTPTSNFSQLRAAAVQSATDLYGSTSQEVASVKQAFDAVGVK

Assays:
[1] = Stability assay in 25% TIDE 2X detergent with DTPA (residual Abz-AGLA-Nba protease activity); format: physicochemical; details: 60 min at 32°C; variant residual AGLA activity divided by wild-type residual activity
In short: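 Thermolysin variant culture supernatants stressed in TIDE 2× detergent, with or without DTPA: 60 min at 32° C or 180 min at 50° C. Residual versus unstressed activity on Abz-AGLA-Nba read kinetically at 25° C (Ex 350/Em 420). Performance index is variant residual activity divided by wild-type thermolysin residual activity.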

[2] = TIDE 2X 0.78 g/l, 6 gpg, pH 8.2, 30 min at 20°C, A405; variant vs wild-type thermolysin at same protein concentration
Experimental: Thermolysin containing protease samples were obtained from filtered broth of cultures grown in microtiter plates for 3 days at 37° C. with shaking at 280 rpm under humidified aeration.
• Thermolysin containing culture supernatants (˜100-200 μg protein per ml) • TIDE® 2× (nil enzymes) detergent (P&G) • Dilution Buffer (10 mM NaCl, 0.1 mM CaCl2, 0.005% TWEEN®-80) The equipment used was a Biomek FX Robot (Beckman Coulter), a SpectraMAX MTP Reader (type 340; Molecular Devices), and an iEMS incubator/shaker (Thermo/Labsystems). MTPs were obtained from Costar (type 9017). TIDE® 2× Liquid Detergent Preparation (US Conditions):
Milli-Q water was adjusted to 6 gpg water hardness using a (Ca/Mg 3:1) hardness stock solution (282.3 g/L CaCl2.2H20, 130.1 g/L MgCl2.6H2O), 0.78 g/1 detergent TIDE® 2× was added, and the detergent solution was stirred vigorously for at least 15 minutes. Then, 5 mM HEPES was added and the pH adjusted to 8.2.
Microswatches of ¼ inch circular diameter were obtained from CFT (Vlaardingen, The Netherlands).
Two microswatches were placed vertically into each well of a 96-well microtiter plate to expose the whole surface area (i.e., not flat on the bottom of the well).
The incubator was set to 20° C. The filtered culture broth samples were tested at an appropriate concentration by dilution with a mixture of 10 mM NaCl, 0.1 mM CaCl2, 0.005% TWEEN®-80 solution. The detergent solution was prepared as described above. Then, 190 μl of detergent solution were added to each well of the MTP, containing microswatches. To this mixture, 10 μl of diluted enzyme solution were added to each well (to provide a total volume of 200 μl/well). The MTP was covered with a plate seal and placed in an incubator for 30 minutes at 20° C., with agitation at 1400 rpm (iEMS incubator). Following incubation under the appropriate conditions, 100 μl of solution from each well was removed and placed into a new MTP. Subsequently this MTP, containing 100 μl of solution/well, was read at 405 nm in a MTP-Reader. Blank controls, containing 2 microswatches/well and detergent, without the addition of thermolysin containing samples, were also included in the test.
The observed absorbance value was corrected for the blank value (obtained after incubation of microswatches in the absence of added enzyme). The resulting absorbance was a measure for the hydrolytic activity. For each sample (thermolysin or a variant) the performance index (PI) was calculated. The performance index is a comparison of the performance of the variant (actual value) and the standard thermolysin enzyme (theoretical value) at the same protein concentration. In addition, the theoretical values were calculated, using the parameters of the Langmuir equation of the standard enzyme.
C. Stability Assay in the Presence of Detergent
In this example, experiments were conducted to determine the stain removal performance of various singly substituted thermolysin (also referred to herein as Proteinase-T or PrT) variants. As described in Example 1, the stain cleaning performance of thermolysin variants was done utilizing a blood/milk/ink (BMI) microswatch assay. Briefly the cleaning performance of chosen single-substitution thermolysin variants was assessed in a TIDE® 2× microswatch assay.

Molecule | PI (relative stability), 25% TIDE 2X with DTPA [1] | PI (performance index), stain removal [2]
B1 | 1.12 | 1.08
B2 | 1.19 | 1.11
B3 | 1.26 | 1.75
B4 | 1.02 | 1.22
B5 | 1.11 | 1.17
B6 | 1.10 | 1.11
B7 | 1.11 | 1.25
B8 | 1.03 | 1.29
B9 | 1.09 | 1.06
